We go through one molecule from US6905818 (MAX PLANCK GESELLSCHAFT ZUR FORDERUNGDER WISSENSCHAFTEN, dated 2005).

The assay has as its target T1, LexA protein expressed from pBTM117c (UniProt P0A7C2 1-202).
T1 construct: range 1-220; also called strain x1a
T1 sequence (looked up): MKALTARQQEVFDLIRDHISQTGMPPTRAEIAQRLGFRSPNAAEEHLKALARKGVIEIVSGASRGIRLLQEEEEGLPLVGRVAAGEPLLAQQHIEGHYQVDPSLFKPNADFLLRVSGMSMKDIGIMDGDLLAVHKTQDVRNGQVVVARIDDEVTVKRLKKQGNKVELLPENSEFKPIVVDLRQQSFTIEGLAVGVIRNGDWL
Description: yeast two-hybrid, growth on SD-leu-trp-his and β-galactosidase membrane assay. The procedure: Two transformants from each transformation were investigated for the presence of protein—protein interactions by testing the ability of the yeast cells to grow on SD-leu-trp, SD-leu-trp-his, SD-leu+CAN and SD-trp+CHX plates and by the β-galactosidase membrane assay (Breeden and Nasmyth, 1985). […] After selection of the yeast strains harboring the different combinations of the two-hybrid plasmids on SD-leu+CAN and SD-trp+CHX the resulting strains were also analyzed by the β-galactosidase assay. After incubating the membrane containing all three strains on SD-trp+CHX medium only progeny of the yeast strain that originally harbored both the plasmids pBTM117c-HIP1 & pGAD427 yet which had lost the pGAD427 plasmid through counterselection turned blue after incubating in X-Gal solution. […] In comparison, the yeast strain harboring both the plasmids pBTM117c-SIM1 & pGAD427-ARNT is a positive clone that expresses interacting LexA and GAL4ad fusion proteins, because both the LexA and the Gal4ad fusion proteins are necessary for the activation of the reporter genes. […] With the membranes from the SD-leu+CAN plate false positive clones expressing an auto-activating GAL4ad-LexA fusion protein were also detected by the β-galactosidase assay.

B1: GAL4ad expressed from pGAD427 (other, yeast, UniProt P04386 768-881, looked up)
chain: ANFNQSGNIADSSLSFTFTNSSNGPNLITTQTNSQALSQPIASSNVHDNFMNNEITASKIDDGNNSKPLSPGWTDQTAYNAFGITTGMFNTTTMDDVYNYLFDDEDTPPNPKKE
notes: range 768-881; also called strain y1α
Consider B1, for which the binding result is listed as “no binding”.
